Reference: paper PMC3044157, “The Nuclear Guanine Nucleotide Exchange Factors Ect2 and Net1 Regulate RhoB-Mediated Cell Death after DNA Damage” (PLoS ONE, 2011)
One block for each binder: values may come before it.

Biological target: T1, GST-RhoB(17A), nucleotide free RhoB mutant (UniProt P62745 1-196, G17A)
T1 construct: RhoB, small GTPase of the Rho family, with the nucleotide-free mutation G17A; also called nucleotide-free mutant of RhoB; nucleotide-free Rho mutants (G17A)
Assay: pull-down; 20 ug purified GST-RhoB(17A) on glutathione-sepharose beads, incubated with clarified MCF-7 lysates for 60 min at 4 C; cells mock-treated or irradiated with 5 Gy (also 400 uM 5-FU for 72 h); immunoblot for the GEFs
Details: one partner purified

T1 sequence (P62745 whole entry G17A): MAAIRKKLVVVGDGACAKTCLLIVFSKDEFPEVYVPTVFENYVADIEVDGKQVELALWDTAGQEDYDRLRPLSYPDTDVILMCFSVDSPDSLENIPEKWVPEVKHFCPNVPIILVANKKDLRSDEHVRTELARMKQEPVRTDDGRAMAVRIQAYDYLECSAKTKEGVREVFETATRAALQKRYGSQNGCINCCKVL

fold increase in binding after IR over mock-treated: ≥ 5 fold
B1: epithelial cell transforming sequence 2 (Ect2) (natural protein, human (endogenous in MCF-7 and HeLa), UniProt Q9H8V3 1-914, looked up)
chain: MAENSVLTSTTGRTSLADSSIFDSKVTEISKENLLIGSTSYVEEEMPQIETRVILVQEAGKQEELIKALKTIKIMEVPVIKIKESCPGKSDEKLIKSVINMDIKVGFVKMESVEEFEGLDSPEFENVFVVTDFQDSVFNDLYKADCRVIGPPVVLNCSQKGEPLPFSCRPLYCTSMMNLVLCFTGFRKKEELVRLVTLVHHMGGVIRKDFNSKVTHLVANCTQGEKFRVAVSLGTPIMKPEWIYKAWERRNEQDFYAAVDDFRNEFKVPPFQDCILSFLGFSDEEKTNMEEMTEMQGGKYLPLGDERCTHLVVEENIVKDLPFEPSKKLYVVKQEWFWGSIQMDARAGETMYLYEKANTPELKKSVSMLSLNTPNSNRKRRRLKETLAQLSRETDVSPFPPRKRPSAEHSLSIGSLLDISNTPESSINYGDTPKSCTKSSKSSTPVPSKQSARWQVAKELYQTESNYVNILATIIQLFQVPLEEEGQRGGPILAPEEIKTIFGSIPDIFDVHTKIKDDLEDLIVNWDESKSIGDIFLKYSKDLVKTYPPFVNFFEMSKETIIKCEKQKPRFHAFLKINQAKPECGRQSLVELLIRPVQRLPSVALLLNDLKKHTADENPDKSTLEKAIGSLKEVMTHINEDKRKTEAQKQIFDVVYEVDGCPANLLSSHRSLVQRVETISLGEHPCDRGEQVTLFLFNDCLEIARKRHKVIGTFRSPHGQTRPPASLKHIHLMPLSQIKKVLDIRETEDCHNAFALLVRPPTEQANVLLSFQMTSDELPKENWLKMLCRHVANTICKADAENLIYTADPESFEVNTKDMDSTLSRASRAIKKTSKKVTRAFSFSKTPKRALRRALMTSHGSVEGRSPSSNDKHVMSRLSSTSSLAGIPSPSLVSLPSFFERRSHTLSRSTTHLI
notes: Ect2, nuclear guanine nucleotide exchange factor, endogenous in human cancer cell lines, detected by immunoblot (sc-1005); source: endogenous, MCF-7 lysate; endogenous, HeLa lysate

fold increase in binding after IR over mock-treated: ≥ 5 fold
B2: neuroepithelial transforming gene 1 (Net1) (natural protein, human (endogenous in MCF-7 and HeLa), UniProt Q7Z628 1-596, looked up)
chain: MEPELAAQKQPRPRRRSRRASGLSTEGATGPSADTSGSELDGRCSLRRGSSFTFLTPGPNWDFTLKRKRREKDDDVVSLSSLDLKEPSNKRVRPLARVTSLANLISPVRNGAVRRFGQTIQSFTLRGDHRSPASAQKFSSRSTVPTPAKRRSSALWSEMLDITMKESLTTREIRRQEAIYEMSRGEQDLIEDLKLARKAYHDPMLKLSIMSEEELTHIFGDLDSYIPLHEDLLTRIGEATKPDGTVEQIGHILVSWLPRLNAYRGYCSNQLAAKALLDQKKQDPRVQDFLQRCLESPFSRKLDLWSFLDIPRSRLVKYPLLLKEILKHTPKEHPDVQLLEDAILIIQGVLSDINLKKGESECQYYIDKLEYLDEKQRDPRIEASKVLLCHGELRSKSGHKLYIFLFQDILVLTRPVTRNERHSYQVYRQPIPVQELVLEDLQDGDVRMGGSFRGAFSNSEKAKNIFRIRFHDPSPAQSHTLQANDVFHKQQWFNCIRAAIAPFQSAGSPPELQGLPELHEECEGNHPSARKLTAQRRASTVSSVTQVEVDENAYRCGSGMQMAEDSKSLKTHQTQPGIRRARDKALSGGKRKETLV
notes: Net1, nuclear guanine nucleotide exchange factor, endogenous in human cancer cell lines, detected by immunoblot; source: endogenous, MCF-7 lysate; endogenous, HeLa lysate
